Six variants from IntAct's records for PubMed 31515488 can be followed below.

The labels stand for the following.
B1: Tektin-4 (Homo sapiens), Q8WW24 (parent)
chain: MAQTVPPCELPCKEYDVARNTGAYTSSGLATASFRTSKYLLEEWFQNCYARYHQAFADRDQSERQRHESQQLATETQALAQRTQQDSTRTVGERLQDTHSWKSELQREMEALAAETNLLLAQKQRLERALDATEVPFSITTDNLQCRERREHPNLVRDHVETELLKEAELIRNIQELLKRTIMQAVSQIRLNREHKETCEMDWSDKMEAYNIDETCGRHHSQSTEVQAHPYSTTFQESASTPETRAKFTQDNLCRAQRERLASANLRVLVDCILRDTSEDLRLQCDAVNLAFGRRCEELEDARYKLHHHLHKTLREITDQEHNVAALKQAIKDKEAPLHVAQTRLYLRSHRPNMELCRDAAQFRLLSEVEELNMSLTALREKLLEAEQSLRNLEDIHMSLEKDIAAMTNSLFIDRQKCMAHRTRYPTILQLAGYQ
partner: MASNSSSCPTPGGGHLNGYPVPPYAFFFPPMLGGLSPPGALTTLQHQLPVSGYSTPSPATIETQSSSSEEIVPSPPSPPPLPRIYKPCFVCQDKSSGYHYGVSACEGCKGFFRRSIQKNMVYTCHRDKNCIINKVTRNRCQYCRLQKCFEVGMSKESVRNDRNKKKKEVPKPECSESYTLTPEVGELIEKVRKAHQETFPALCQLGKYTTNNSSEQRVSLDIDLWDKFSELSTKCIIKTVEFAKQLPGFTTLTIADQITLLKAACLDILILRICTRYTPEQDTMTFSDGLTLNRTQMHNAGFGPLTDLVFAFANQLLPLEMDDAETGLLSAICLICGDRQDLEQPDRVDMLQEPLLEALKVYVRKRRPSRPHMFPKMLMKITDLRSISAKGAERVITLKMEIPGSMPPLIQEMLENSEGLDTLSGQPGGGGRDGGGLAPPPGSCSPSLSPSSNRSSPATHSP
B2: MAGUK p55 subfamily member 2 (Homo sapiens), Q14168-2 (parent)
chain: MPVAATNSETAMQQVLDNLGSLPSATGAAELDLIFLRGIMESPIVRSLAKAHERLEETKLEAVRDNNLELVQEILRDLAHVAEQSSTAAELAHILQEPHFQSLLETHDSVASKTYETPPPSPGLDPTFSNQPVPPDAVRMVGIRKTAGEHLGVTFRVEGGELVIARILHGGMVAQQGLLHVGDIIKEVNGQPVGSDPRALQELLRNASGSVILKILPSYQEPHLPRQVFVKCHFDYDPARDSLIPCKEAGLRFNAGDLLQIVNQDDANWWQACHVEGGSAGLIPSQLLEEKRKAFVKRDLELTPNSGTLCGSLSGKKKKRMMYLTTKNAEFDRHELLIYEEVARMPPFRRKTLVLIGAQGVGRRSLKNKLIMWDPDRYGTTVPYTSRRPKDSEREGQGYSFVSRGEMEADVRAGRYLEHGEYEGNLYGTRIDSIRGVVAAGKVCVLDVNPQAVKVLRTAEFVPYVVFIEAPDFETLRAMNRAALESGISTKQLTEADLRRTVEESSRIQRGYGHYFDLCLVNSNLERTFRELQTAMEKLRTEPQWVPVSWVY
partner: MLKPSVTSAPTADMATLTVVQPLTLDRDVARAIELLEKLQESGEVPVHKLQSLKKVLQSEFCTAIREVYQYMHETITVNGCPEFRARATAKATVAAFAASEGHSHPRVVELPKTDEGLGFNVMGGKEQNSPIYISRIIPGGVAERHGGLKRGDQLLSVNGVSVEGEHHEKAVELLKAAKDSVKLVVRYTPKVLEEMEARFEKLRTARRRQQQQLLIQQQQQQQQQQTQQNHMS
B3: UPF0462 protein C4orf33 (Homo sapiens), Q8N1A6 (parent)
chain: MDFKIEHTWDGFPVKHEPVFIRLNPGDRGVMMDISAPFFRDPPAPLGEPGKPFNELWDYEVVEAFFLNDITEQYLEVELCPHGQHLVLLLSGRRNVWKQELPLSFRMSRGETKWEGKAYLPWSYFPPNVTKFNSFAIHGSKDKRSYEALYPVPQHELQQGQKPDFHCLEYFKSFNFNTLLGEEWKQPESDLWLIEKCDI
B4: KAT8 regulatory NSL complex subunit 1 (Homo sapiens), Q7Z3B3 (parent)
chain: MAAMAPALTDAAAEAHHIRFKLAPPSSTLSPGSAENNGNANILIAANGTKRKAIAAEDPSLDFRNNPTKEDLGKLQPLVASYLCSDVTSVPSKESLKLQGVFSKQTVLKSHPLLSQSYELRAELLGRQPVLEFSLENLRTMNTSGQTALPQAPVNGLAKKLTKSSTHSDHDNSTSLNGGKRALTSSALHGGEMGGSESGDLKGGMTNCTLPHRSLDVEHTTLYSNNSTANKSSVNSMEQPALQGSSRLSPGTDSSSNLGGVKLEGKKSPLSSILFSALDSDTRITALLRRQADIESRARRLQKRLQVVQAKQVERHIQHQLGGFLEKTLSKLPNLESLRPRSQLMLTRKAEAALRKAASETTTSEGLSNFLKSNSISEELERFTASGIANLRCSEQAFDSDVTDSSSGGESDIEEEELTRADPEQRHVPLRRRSEWKWAADRAAIVSRWNWLQAHVSDLEYRIRQQTDIYKQIRANKGLIVLGEVPPPEHTTDLFLPLSSEVKTDHGTDKLIESVSQPLENHGAPIIGHISESLSTKSCGALRPVNGVINTLQPVLADHIPGDSSDAEEQLHKKQRLNLVSSSSDGTCVAARTRPVLSCKKRRLVRPNSIVPLSKKVHRNSTIRPGCDVNPSCALCGSGSINTMPPEIHYEAPLLERLSQLDSCVHPVLAFPDDVPTSLHFQSMLKSQWQNKPFDKIKPPKKLSLKHRAPMPGSLPDSARKDRHKLVSSFLTTAKLSHHQTRPDRTHRQHLDDVGAVPMVERVTAPKAERLLNPPPPVHDPNHSKMRLRDHSSERSEVLKHHTDMSSSSYLAATHHPPHSPLVRQLSTSSDSPAPASSSSQVTASTSQQPVRRRRGESSFDINNIVIPMSVAATTRVEKLQYKEILTPSWREVDLQSLKGSPDEENEEIEDLSDAAFAALHAKCEEMERARWLWTTSVPPQRRGSRSYRSSDGRTTPQLGSANPSTPQPASPDVSSSHSLSEYSHGQSPRSPISPELHSAPLTPVARDTPRHLASEDTRCSTPELGLDEQSVQPWERRTFPLAHSPQAECEDQLDAQERAARCTRRTSGSKTGRETEAAPTSPPIVPLKSRHLVAAATAQRPTHR
partner: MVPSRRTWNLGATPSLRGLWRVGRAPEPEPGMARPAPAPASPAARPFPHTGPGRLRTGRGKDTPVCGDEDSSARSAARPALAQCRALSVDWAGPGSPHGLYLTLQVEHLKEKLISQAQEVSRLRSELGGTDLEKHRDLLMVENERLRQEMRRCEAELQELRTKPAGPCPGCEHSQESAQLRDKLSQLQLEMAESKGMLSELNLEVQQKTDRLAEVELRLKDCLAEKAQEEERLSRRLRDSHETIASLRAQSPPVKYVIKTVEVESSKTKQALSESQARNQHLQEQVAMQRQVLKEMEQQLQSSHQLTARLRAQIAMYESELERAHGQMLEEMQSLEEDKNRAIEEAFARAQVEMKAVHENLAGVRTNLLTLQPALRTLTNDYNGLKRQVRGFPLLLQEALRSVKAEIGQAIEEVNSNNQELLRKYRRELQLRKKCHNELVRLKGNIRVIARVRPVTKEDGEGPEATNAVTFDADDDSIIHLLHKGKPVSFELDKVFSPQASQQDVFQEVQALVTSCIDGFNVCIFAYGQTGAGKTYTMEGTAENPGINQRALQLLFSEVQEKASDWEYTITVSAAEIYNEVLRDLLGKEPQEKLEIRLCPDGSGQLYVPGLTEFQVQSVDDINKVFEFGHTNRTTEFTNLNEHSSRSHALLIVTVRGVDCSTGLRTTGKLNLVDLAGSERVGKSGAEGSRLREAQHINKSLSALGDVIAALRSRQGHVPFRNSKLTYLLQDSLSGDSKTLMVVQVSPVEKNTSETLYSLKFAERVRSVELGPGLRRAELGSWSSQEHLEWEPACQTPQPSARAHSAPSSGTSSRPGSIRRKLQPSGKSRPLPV

Variants of B1 are the subject of one experiment. The conditions noted are these: with rara_human RARA.
As to D403N, the “effect of a mutation on the interaction” value is reported as “with no effect”.
For I404T, the “effect of a mutation on the interaction” value was “disrupting interaction strength”.
For C272S, the “effect of a mutation on the interaction” value is reported as “disrupting interaction strength”.

Variants of B2 are the subject of the next experiment. The following applies: with lin7a_human LIN7A.
For the variant R500W, the “effect of a mutation on the interaction” value was “with no effect”.

In another experiment the parent is B3. The following applies: with vac14_human VAC14, Q08AM6.
vac14_human VAC14, Q08AM6, sequence (Q08AM6 whole entry): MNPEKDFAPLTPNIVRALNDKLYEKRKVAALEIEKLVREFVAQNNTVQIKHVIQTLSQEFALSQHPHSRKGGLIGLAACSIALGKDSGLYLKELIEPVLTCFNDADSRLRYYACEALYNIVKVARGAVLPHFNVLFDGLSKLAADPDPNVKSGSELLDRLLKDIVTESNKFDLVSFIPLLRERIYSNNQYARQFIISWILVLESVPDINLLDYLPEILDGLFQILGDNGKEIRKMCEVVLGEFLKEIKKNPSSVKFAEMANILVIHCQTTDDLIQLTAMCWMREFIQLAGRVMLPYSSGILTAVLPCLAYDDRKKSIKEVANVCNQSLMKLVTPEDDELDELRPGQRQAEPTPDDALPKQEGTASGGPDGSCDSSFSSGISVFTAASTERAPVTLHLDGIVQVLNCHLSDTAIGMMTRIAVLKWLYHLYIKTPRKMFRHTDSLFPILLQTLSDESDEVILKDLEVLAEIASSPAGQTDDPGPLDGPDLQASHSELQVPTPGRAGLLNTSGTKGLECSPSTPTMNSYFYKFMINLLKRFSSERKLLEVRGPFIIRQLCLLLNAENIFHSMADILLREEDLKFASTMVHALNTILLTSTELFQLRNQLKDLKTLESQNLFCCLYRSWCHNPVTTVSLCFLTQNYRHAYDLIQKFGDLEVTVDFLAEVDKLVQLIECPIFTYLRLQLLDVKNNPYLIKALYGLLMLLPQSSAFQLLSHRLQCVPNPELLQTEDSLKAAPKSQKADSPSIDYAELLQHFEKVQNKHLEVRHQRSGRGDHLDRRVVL
In the case of H166R, the “effect of a mutation on the interaction” value is listed as “with no effect”.

In a further experiment the parent is B4. The following applies: with kifc3_human KIFC3, Q9BVG8.
K104T: the “effect of a mutation on the interaction” value is listed as “disrupting interaction strength”.
